Reference: patent US20100280227A1 (Genentech, published 2010)
“And” between values parts separate entries of the source, which are not always exact repeats. Equal entries are not always repeated. Where two headings read alike, the source gives them in different places.

Legend:
[1] = biological target: T1, human BR3 extracellular domain (human, UniProt Q96RJ3 1-61); assay: SPR, IgG on chip, BR3 ECD in solution
T1 construct: biotinylated where used as tracer; also called hBR3-ECD; BR3-ECD

[2] = biological target: T2, mouse BR3 extracellular domain (mouse, UniProt Q9D8D0 1-64); assay: SPR, IgG on chip, BR3 ECD in solution
T2 construct: also called mBR3-ECD; mBR-ECD
T2 sequence: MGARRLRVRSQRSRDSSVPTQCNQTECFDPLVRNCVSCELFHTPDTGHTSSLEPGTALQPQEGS

[3] = biological target: T3, human BR3 expressed on cells (human, UniProt Q96RJ3 1-184); assay: BJAB cells, competition with biotin-BAFF
T3 construct: whole, on cells; also called BR3 on BJAB cells; cell surface BR3
Description: (§1) The diluted samples were added to the pelleted BJAB cells in 96 well plates as described above. After 45 min incubation on ice, the cells were washed twice with 200 μl cold assay buffer, and streptavidin-HRP (AMDEX, Amersham Biosciences, Piscataway, N.J.) diluted 1/5,000 in assay buffer was added (100 μl/well). The plates were incubated for a final 45 min on ice. After washing twice with cold assay buffer, color was developed using TMB, the reaction was stopped with H₃PO₄, and the plates were read as described above.

[4] = biological target: T1, human BR3 extracellular domain; assay: F(ab)'2 phage solution binding competition ELISA
Description: (§2) Third, a competition ELISA was performed. […] The wells were blocked by adding 65 ul 1% BSA for 30 minutes followed by 40 ul 1% Tween20 for another 30 minutes. The wells were washed with PBS—0.05% Tween20 5 times. […] The wells of the second plate were washed with PBS—0.5% Tween20 at least three times. 75 ul of HRP-conjugated anti-M13 antibody (1/5000 dilution with ELISA buffer) per well was added and incubated at room temperature for 30 minutes. The wells were washed again with PBS—0.05% Tween20 at least five times.

[5] = biological target: T2, mouse BR3 extracellular domain; assay: F(ab)'2 phage solution binding competition ELISA
Description: as §2

[6] = biological target: T1, human BR3 extracellular domain; assay: SPR BIAcore-3000, Fab
Excerpt: (§3) Surface plasmon resonance assays on a BIAcore™-3000 were used to determine the affinity of the Fabs.

[7] = biological target: T2, mouse BR3 extracellular domain; assay: SPR BIAcore-3000, Fab
Excerpt: as §3

[8] = biological target: T1, human BR3 extracellular domain; assay: phage competition ELISA
[9] = biological target: T2, mouse BR3 extracellular domain; assay: phage competition ELISA
[10] = biological target: T2, mouse BR3 extracellular domain; assay: SPR BIAcore-2000, mBR3-ECD on chip, Fab injected
Excerpt: (§4) Biacore measurement Surface plasmon resonance assays on a BIAcore™-2000 were used to determine the affinity of anti-BR3 Fabs. […] For kinetics analysis, 1:1 Languir model of simultaneous fitting of kₒₙ and koff was used.

[11] = biological target: T1, human BR3 extracellular domain; assay: SPR BIAcore-2000, hBR3-ECD on chip, Fab injected
Excerpt: as §4

[12] = biological target: T1, human BR3 extracellular domain; assay: SPR, BR3 ECD on chip;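 also: Anti-BR3 antibodies passed over the chip at high flow in PBS with 0.05% polysorbate 20, on and off rates fitted together globally to a 1:1 binding model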
Description: (§5) After coupling, unoccupied sites on the chip were blocked by injecting 20 μl of 1M ethanolamine, pH 8.5. The running buffer was PBS containing 0.05% polysorbate 20. […] The binding surface was regenerated by injecting 20-30 μl of 10 mM glycine.HCl (pH 1.5). […] Data were analyzed using a 1:1 binding model using global fitting. The association and dissociation rate constants were fitted simultaneously (BIAevaluation software).
(§6) A high flow rate was used in order to minimize mass transport effects.

[13] = biological target: T4, variant human BR3-Fc fusion; assay: SPR, vBR3-Fc on chip;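 also: Anti-BR3 antibodies passed over chip-bound BR3-Fc in PBS with 0.05% polysorbate 20, on and off rates fitted together globally to a 1:1 binding model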
T4 construct: produced in CHO cells; also called vBR3-Fc; vhBR3-Fc
Description: as §5, §6

[14] = biological target: T1, human BR3 extracellular domain; assay: BIAcore, Fab over immobilised target
Description: (§7) Each sample was analysed with 2-minute association and 20-minute dissociation. After each injection the chip was regenerated using 10 mM Glycine pH 1.5. Binding response was corrected by subtracting the RU from a blank flow cell. A 1:1 Languir model of simultaneous fitting of kₒₙ and koff was used for kinetics analysis.

[15] = biological target: T3, human BR3 expressed on cells; assay: BJAB cells, direct binding
[16] = biological target: T3, human BR3 expressed on cells; assay: BJAB cells, competition with biotin-BAFF; remark: listed apart in the source
Description: as §1

[17] = biological target: T4, variant human BR3-Fc fusion; assay: BIAcore, Fab over immobilised target
Description: as §7

B1: mV3-46 IgG (antibody, V domains shown)
VH: EVQLVESGGGLVQPGGSLRLSCAASGFTISNSSIHWVRQAPGKGLEWVAWVLPSVGFTDYADSVKGRFTISADTSKNTAYLQMNSLRAEDTAVYYCARRVCYNRLGVCAGGMDYWGQGTLVTVSS
VL: DIQMTQSPSSLSASVGDRVTITCRASQDVSTAVAWYQQKPGKAPKLLIYSASFLYSGVPSRFSGSGSGTDFTLTISSLQPEDFATYYCQQSQISPPTFGQGTKVEIKR
notes: IgG on chip
Kd [1]: 0.24 nM
koff [1]: 7.31e-05 s⁻¹
kon [1]: 300000 M⁻¹ s⁻¹
Kd [2]: 1.17 nM
koff [2]: 0.00014 s⁻¹
kon [2]: 119000 M⁻¹ s⁻¹

B2: V3-1h (antibody, human IgG1, V domains shown)
VH: EVQLVESGGGLVQPGGSLRLSCAASGFTISSNSIHWVRQAPGKGLEWVAWITPSDGNTDYADSVKGRFTISADTSKNTAYLQMNSLRAEDTAVYYCARRVCYNRLGVCAGGMDYWGQGTLVTVSS
VL: DIQMTQSPSSLSASVGDRVTITCRASQDVSTAVAWYQQKPGKAPKLLIYSASFLYSGVPSRFSGSGSGTDFTLTISSLQPEDFATYYCQQSRITPPTFGQGTKVEIKR
IC50 [3]: 5.97 nM

B3: 44 (Fab, V domains shown)
VH: EVQLVESGGGLVQPGGSLRLSCAASGFTITGSYIHWVRQAPGKGLEWVAWIYPDGGYTDYADSVKGRFTISADTSKNTAYLQMNSLRAEDTAVYYCASKPAGPFGYWGQGTLVTVSS
VL: DIQMTQSPSSLSASVGDRVTITCRASQDVSTAVAWYQQKPGKAPKLLIYSASFLYSGVPSRFSGSGSGTDFTLTISSLQPEDFATYYCQQSYTTPPTFGQGTKVEIKR
notes: also called V44; clone 44
binding result [4]: no binding
IC50 [5]: 1500 nM

B4: V3-46s-9 Fab (Fab, V domains shown)
VH: EVQLVESGGGLVQPGGSLRLSCAASGFTISSSSIHWVRQAPGKGLEWVAWVLPSVGFTDYADSVKGRFTISADTSKNTAYLQMNSLRAEDTAVYYCARRVCYNRLGVCAGGMDYWGQGTLVTVSS
VL: DIQMTQSPSSLSASVGDRVTITCRASEDISTAVAWYQQKPGKAPKLLIFAASYLYSGVPSRFSGSGSGTDFTLTISSLQPEDFATYYCQQSQISPPTFGQGTKVEIK
notes: soluble Fab in SPR; also called V46s-9
Kd [6]: 0.09 nM
koff [6]: 1.6e-05 s⁻¹
kon [6]: 160000 M⁻¹ s⁻¹
Kd [7]: 0.32 nM
koff [7]: 0.00015 s⁻¹
kon [7]: 470000 M⁻¹ s⁻¹
IC50 [8]: 0.053 nM
IC50 [9]: 0.182 nM

B5: V3-46s Fab (Fab, V domains shown)
VH: EVQLVESGGGLVQPGGSLRLSCAASGFTISSSSIHWVRQAPGKGLEWVAWVLPSVGFTDYADSVKGRFTISADTSKNTAYLQMNSLRAEDTAVYYCARRVCYNRLGVCAGGMDYWGQGTLVTVSS
VL: DIQMTQSPSSLSASVGDRVTITCRASQDVSTAVAWYQQKPGKAPKLLIYSASFLYSGVPSRFSGSGSGTDFTLTISSLQPEDFATYYCQQSQISPPTFGQGTKVEIKR
notes: N31S mutant of V3-46; also called V46s; N31S
Kd [6]: 0.6 nM
koff [6]: 8.6e-05 s⁻¹
kon [6]: 140000 M⁻¹ s⁻¹
Kd [7]: 1 nM
koff [7]: 0.00027 s⁻¹
kon [7]: 270000 M⁻¹ s⁻¹
Kd [10]: 1 nM
koff [10]: 0.00027 s⁻¹
kon [10]: 270000 M⁻¹ s⁻¹
Kd [11]: 0.6 nM
koff [11]: 8.6e-05 s⁻¹
kon [11]: 140000 M⁻¹ s⁻¹

B6: 51 (Fab, V domains shown)
VH: EVQLVESGGGLVQPGGSLRLSCAASGFTISSTGIHWVRQAPGKGLEWVGGISPSSGSTNYADSVKGRFTISADTSKNTAYLQMNSLRAEDTAVYYCARRKVVSSHVTNKYVMDYWGQGTLVTVSS
VL: DIQMTQSPSSLSASVGDRVTITCRASQDVSTAVAWYQQKPGKAPKLLIYSASFLYSGVPSRFSGSGSGTDFTLTISSLQPEDFATYYCQQSYTTPPTFGQGTKVEIKR
notes: also called V51; clone 51
binding result [4]: binds
binding result [5]: no binding

B7: mV3-46s IgG (antibody, V domains shown)
VH: EVQLVESGGGLVQPGGSLRLSCAASGFTISSSSIHWVRQAPGKGLEWVAWVLPSVGFTDYADSVKGRFTISADTSKNTAYLQMNSLRAEDTAVYYCARRVCYNRLGVCAGGMDYWGQGTLVTVSS
VL: DIQMTQSPSSLSASVGDRVTITCRASQDVSTAVAWYQQKPGKAPKLLIYSASFLYSGVPSRFSGSGSGTDFTLTISSLQPEDFATYYCQQSQISPPTFGQGTKVEIKR
notes: IgG on chip
Kd [1]: 0.02 nM
koff [1]: 3.18e-05 s⁻¹
kon [1]: 1.57e+06 M⁻¹ s⁻¹
Kd [2]: 0.32 nM
koff [2]: 9.51e-05 s⁻¹
kon [2]: 298000 M⁻¹ s⁻¹

B8: V3-46s-42 Fab (Fab, V domains shown)
VH: EVQLVESGGGLVQPGGSLRLSCAASGFTISSSSIHWVRQAPGKGLEWVAWVLPSVGFTDYADSVKGRFTISADTSKNTAYLQMNSLRAEDTAVYYCARRVCYNRLGVCAGGMDYWGQGTLVTVSS
VL: DIQMTQSPSSLSASVGDRVTITCRASEDISTAVAWYQQKPGKAPKLLIYAASFLYSGVPSRFSGSGSGTDFTLTISSLQPEDFATYYCQQSQISPPTFGQGTKVEIK
notes: soluble Fab in SPR; also called V46s-42
Kd [6]: 0.026 nM
koff [6]: 1.4e-05 s⁻¹
kon [6]: 617000 M⁻¹ s⁻¹
Kd [7]: 0.39 nM
koff [7]: 0.00029 s⁻¹
kon [7]: 740000 M⁻¹ s⁻¹

B9: chimeric 2.1 Fab (Fab, V domains shown)
VH: EVQLQESGPSLVKPSQTLSLTCSVTGDSITRGYWNWIRKFPGNKLEFMGYINYSGTTYYNPSLKSRISITRDTSKNQYYLQLNSVTTEDTATYYCATPHTYGAMDYWGQGTTLTVSA
VL: DIVLTQSPVSLAVSLGQRATISCRASESVDDYGISFMHWYQQKPGQPPKLLIYRASDLESGIPARFSGSGSGTDFTLTINPVETDDVAIYYCQQTSKDPWTFGGGT
notes: Fab with murine variable domains; also called Ch 2.1 Fab
Kd [12]: 0.12 nM and 0.11 nM
koff [12]: 0.000271 s⁻¹ and 0.000294 s⁻¹
kon [12]: 2.25e+06 M⁻¹ s⁻¹ and 2.65e+06 M⁻¹ s⁻¹
Kd ([13]; 140 RU BR3-Fc immobilized): 1.12 nM
koff ([13]; 140 RU BR3-Fc immobilized): 0.00148 s⁻¹
kon ([13]; 140 RU BR3-Fc immobilized): 1.32e+06 M⁻¹ s⁻¹
Kd ([13]; 220 RU BR3-Fc immobilized): 0.92 nM
koff ([13]; 220 RU BR3-Fc immobilized): 0.00145 s⁻¹
kon ([13]; 220 RU BR3-Fc immobilized): 1.58e+06 M⁻¹ s⁻¹
Kd [14]: 0.115 nM

B10: chimeric 2.1 IgG (antibody, V domains shown)
VH: EVQLQESGPSLVKPSQTLSLTCSVTGDSITRGYWNWIRKFPGNKLEFMGYINYSGTTYYNPSLKSRISITRDTSKNQYYLQLNSVTTEDTATYYCATPHTYGAMDYWGQGTTLTVSA
VL: DIVLTQSPVSLAVSLGQRATISCRASESVDDYGISFMHWYQQKPGQPPKLLIYRASDLESGIPARFSGSGSGTDFTLTINPVETDDVAIYYCQQTSKDPWTFGGGT
notes: also called Ch 2.1 IgG; ch 2.1
Kd [12]: 0.04 nM
koff [12]: 6.8e-05 s⁻¹
kon [12]: 1.68e+06 M⁻¹ s⁻¹
Kd [13]: 0.04 nM
koff [13]: 3.8e-05 s⁻¹
kon [13]: 980000 M⁻¹ s⁻¹
EC50 [15]: 0.14 nM
IC50 [3]: 0.23 nM
IC50 [16]: 0.2 nM

B11: Hu9.1-73 Fab (Fab, V domains shown)
VH: EVQLVESGGGLVQPGGSLRLSCAASGLPMAGFYTSWVRQAPGKGLEWVGFIRDKANGYTTEYNPSVKGRFTISADTSKNTAYLQMNSLRAEDTAVYYCAQVRRALDYWGQGTLVTVSS
VL: DIQMTQSPSSLSASVGDRVTITCKSSQSLLYSSNQNNYLAWYQQKPGKAPKLLIYWAQHLDSGVPSRFSGSGSGTDFTLTISSLQPEDFATYYCQQYYTYPYTFGQGTKVEIKR
notes: Fab expressed in E. coli
Kd [12]: 0.31 nM and 0.32 nM
koff [12]: 0.000174 s⁻¹ and 0.000175 s⁻¹
kon [12]: 560000 M⁻¹ s⁻¹ and 550000 M⁻¹ s⁻¹
Kd [13]: 0.43 nM and 0.48 nM
koff [13]: 0.000215 s⁻¹ and 0.000225 s⁻¹
kon [13]: 500000 M⁻¹ s⁻¹ and 470000 M⁻¹ s⁻¹
Kd [17]: 0.45 nM

B12: chimeric 11G9 IgG (antibody, V domains shown)
VH: DVQLQESGPSLVKPSQTLSLTCSVTGDSITSGYWNWIRKFPGNKLEYMGYISYSGSTYYNPSLKSRISITRDTSKNQFYLQLLSVTTEDTATYYCAGLDGLYWYFDVWGAGTLVTVSS
VL: DIVMTQTPLSLPVSLGDQASISCRSSQSLVHSNGNTYLHWYLQKPGQSPKLLIYKVSNRFSGVPDRFSGSGSGTDFTLKISRVEAEDLGVYFCSQSTHVPPFTFGSGT
notes: also called Ch 11G9 IgG
Kd [12]: 0.34 nM
koff [12]: 0.000549 s⁻¹
kon [12]: 1.64e+06 M⁻¹ s⁻¹
Kd [13]: 2.78 nM
koff [13]: 0.00218 s⁻¹
kon [13]: 780000 M⁻¹ s⁻¹
IC50 [3]: 0.45 nM
